Experimental findings from US7993884B2, “Beta-xylosidase for conversion of plant cell wall carbohydrates to simple sugars” (The United States of America as represented by the …, priority 2006, dated 2011) are described below.

Substrate in data set [1]: O=[N+]([O-])c1ccc(O[C@@H]2O[C@@H](CO)[C@H](O)[C@H]2O)cc1
The data set is described as follows: purified protein, by the assay type. The class given is biochemical, Selenomonas ruminantium GA192. Particulars: other: pH 5.3, 25° C.

Substrate in data set [2]: O=[N+]([O-])c1ccc(O[C@@H]2OC[C@@H](O)[C@H](O)[C@H]2O)cc1
The data set is described as follows: purified protein, by the assay type. It counts as biochemical, Selenomonas ruminantium GA192. Particulars: other: untreated control SXA, pH 7.0, 25° C.

Substrate in data set [3]: O=[N+]([O-])c1ccc(O[C@@H]2O[C@@H](CO)[C@H](O)[C@H]2O)cc1
The data set is described as follows: purified protein, by the assay type.
Method: Kinetics with 4NP Substrates
(§1) Two methods were employed for determining initial rates. […] Initial rates were calculated from fitting the absorbance readings versus time to a line (minimum of 4 points per reaction progression) and by using an extinction coefficient of 17.4 mM^−1 cm^−1. In Method B (continuous monitoring), temperature-equilibrated reactions (1 mL) were monitored at 380 nm (for pH values below 6) or 400 nm (for pH values of 6 and above). Reactions were generally monitored 0.3 min for initial rate determinations. Delta extinction coefficients (product-substrate) used for molar conversion were determined by subtracting the absorbance of substrate (at pH 5 so even very minor contaminating 4NP would not contribute) from the absorbance of 4NP for each reaction condition. […] The concentration of 4NP substrates was determined by incubating the substrate with excess enzyme until an end point was reached, adding an aliquot (0.01 to 0.1 mL) to 0.1 M NaOH, recording the absorbance at 400 nm and using the extinction coefficient of 18.3 cm^−1mM^−1. Unless indicated otherwise, for both Methods A and B, reactions were initiated by adding a small aliquot of enzyme (generally 7 μl of enzyme diluted into 10 mM sodium phosphate, pH 7.0, and incubated on wet ice or at ˜25° C.) to the 1-mL, temperature-equilibrated (25° C.) reaction mixtures. For pH studies, buffers of constant ionic strength (I=0.3 M), adjusted with NaCl, were used as indicated: 100 mM succinate-NaOH (pH 4.3-6), 100 mM sodium phosphate (pH 6-8), 30 mM sodium pyrophosphate (pH 8-9), glycine-NaOH (pH 9) and glycylglycine-NaOH (pH 9).

Substrate in data set [4]: O=[N+]([O-])c1ccc(O[C@@H]2OC[C@@H](O[C@@H]3OC[C@@H](O)[C@H](O)[C@H]3O)[C@H](O)[C@H]2O)cc1
As to the kind of experiment: purified protein, by the assay type. To be noted: other: 100 mM sodium phosphate, pH 7.0, 25° C, first step (4NPX2 to 4NPX+D-xylose), not well determined, pH 7.0.
Method: (§2) Samples (25 μL) were injected onto the column equilibrated with 0.1 M NaOH and developed with a 15-min linear gradient (0.1 M NaOH to 15 mM sodium acetate) at ˜25° C. and a flow rate of 1 mL min^−1.
(§3) Before (time=0 min) and after (time=1-6 min) initiating reactions with enzyme (7 μL), samples (0.05-0.1 mL) were removed and quenched with an equal volume of 0.5 M acetic acid and frozen. Following lyophilization, samples were dissolved in H2O and analyzed by HPLC. […] Results from two replicate reactions were combined to provide data points for the progress curves.
(§4) Before and after addition of enzyme (7 μL), 25-μl aliquots of the reaction mixtures were directly injected onto the HPLC column for quantification of product L-arabinose.
(§5) Quenched samples were analyzed by HPLC for D-xylose. Initial rates were determined from linear regressions of [D-xylose] produced versus reaction time. […] Four 1-mL replicate reactions were conducted to supply data points for the progress curves. Two parallel reactions were conducted, under the same conditions with the same reaction components, the absorbance at 400 nm was continuously monitored (20 min) for 4NP production, and the absorbance values were converted to mM 4NP concentrations by using a delta extinction coefficient (product-substrate) of 8.22 mM^−1 cm^−1.

Substrate in data set [5]: OC1OC[C@@H](O[C@@H]2OC[C@@H](O[C@@H]3OC[C@@H](O[C@@H]4OC[C@@H](O)[C@H](O)[C@H]4O)[C@H](O)[C@H]3O)[C@H](O)[C@H]2O)[C@H](O)[C@H]1O
The data set is described as follows: purified protein, by the assay type. To be noted: other: 100 mM succinate-NaOH, pH 5.3, 25° C.

Substrate in data set [6]: OC1OC[C@@H](O[C@@H]2OC[C@@H](O[C@@H]3OC[C@@H](O[C@@H]4OC[C@@H](O[C@@H]5OC[C@@H](O)[C@H](O)[C@H]5O)[C@H](O)[C@H]4O)[C@H](O)[C@H]3O)[C@H](O)[C@H]2O)[C@H](O)[C@H]1O
The data set is described as follows: purified protein, by the assay type. Particulars: other: 100 mM succinate-NaOH, pH 5.3, 25° C.

Substrate in data set [7]: OC1OC[C@@H](O[C@@H]2OC[C@@H](O[C@@H]3OC[C@@H](O[C@@H]4OC[C@@H](O[C@@H]5OC[C@@H](O[C@@H]6OC[C@@H](O)[C@H](O)[C@H]6O)[C@H](O)[C@H]5O)[C@H](O)[C@H]4O)[C@H](O)[C@H]3O)[C@H](O)[C@H]2O)[C@H](O)[C@H]1O
The data set is described as follows: purified protein, by the assay type. To be noted: for Km: other: 100 mM succinate-NaOH, pH 5.3, 25° C.

Substrate in data set [8]: OC[C@@H]1O[C@@H](OC[C@@H]2OC(O)[C@H](O)[C@H]2O)[C@H](O)[C@H]1O
As to the kind of experiment: purified protein, by the assay type. Particulars: other: 100 mM succinate-NaOH, pH 5.3, 25° C, pH 5.3.
Method: as §2, §3, §4, §5

Substrate in data set [9]: OC1OC[C@@H](O[C@@H]2OC[C@@H](O[C@@H]3OC[C@@H](O)[C@H](O)[C@H]3O)[C@H](O)[C@H]2O)[C@H](O)[C@H]1O
As to the kind of experiment: purified protein, by the assay type. To be noted: for Km: other: 100 mM succinate-NaOH, pH 5.3, 25° C.

Substrate in data set [10]: O=[N+]([O-])c1ccc(O[C@@H]2OC[C@@H](O)[C@H](O)[C@H]2O)cc1
The data set is described as follows: purified protein, by the assay type. Particulars: […].
Method: Kinetics with 4NP Substrates
as §1

Substrate in data set [11]: OC1OC[C@@H](O[C@@H]2OC[C@@H](O)[C@H](O)[C@H]2O)[C@H](O)[C@H]1O
The data set is described as follows: purified protein, by the assay type. To be noted: other: 100 mM succinate-NaOH, pH 5.3, 25° C.

Substrate in data set [12]: O=[N+]([O-])c1ccc(O[C@@H]2OC[C@@H](O)[C@H](O)[C@H]2O)cc1
The data set is described as follows: purified protein, by the assay type. The class given is biochemical, Selenomonas ruminantium GA192. Particulars: other: pH 5.3, 25° C. The source says:
Determination of Inhibition Constants

Data set [13] is described as follows: Isoelectric focusing of native SXA. The class given is physicochemical. Particulars: IEF pH 3-10 gel.
Data set [14] has as its target T1, SXA (Selenomonas ruminantium, UniProt O52575). The data set is described as follows: pH stability of SXA and protection from low pH inactivation at pH 4.0 by monosaccharides.
Method: Buffers of constant ionic strength (I=0.3 M), adjusted with NaCl, were used as indicated: 100 mM succinate-NaOH (pH 3.5-6), 100 mM sodium phosphate (pH 6-8), 30 mM sodium pyrophosphate (pH 8-9), and 100 mM glycine-NaOH (pH 9-10). […] Initial rates were determined by monitoring reactions continuously at 400 nM for 0.3 min. […] Relative activity remaining data were fitted to equation 3, which describes a first order decay: A is the relative activity remaining at varied times of preincubation, A0 is the relative activity remaining at time zero of the preincubation, kobs is the first order rate constant, and t is the time of preincubation. Apparent affinities for D-xylose and D-glucose were determined by fitting kobs values from the monosaccharide protection studies to equation 4 where kobs is the observed first order rate constant for the decay, k0 is the first order rate constant in the absence of ligand (e.g., D-xylose), I is the ligand concentration in the preincubation mixture, and Ki is the dissociation constant of ligand from the enzyme-ligand complex.
The target of data set [15] is T1, SXA. The method, then:
Initial rates were determined by monitoring reactions continuously at 400 nM for 0.3 min. […] Relative activity remaining data were fitted to equation 3, which describes a first order decay: A is the relative activity remaining at varied times of preincubation, A0 is the relative activity remaining at time zero of the preincubation, kobs is the first order rate constant, and t is the time of preincubation. Apparent affinities for D-xylose and D-glucose were determined by fitting kobs values from the monosaccharide protection studies to equation 4 where kobs is the observed first order rate constant for the decay, k0 is the first order rate constant in the absence of ligand (e.g., D-xylose), I is the ligand concentration in the preincubation mixture, and Ki is the dissociation constant of ligand from the enzyme-ligand complex.
Ligand protection studies contained varied concentrations of D-xylose or D-glucose in the pH 5.3 preincubation buffer at 55° C.

The mark [16] stands for this setting: D-xylose α:β ratio 1:2.5 experiment.
[17] abbreviates: D-xylose α:β ratio 6:1 experiment.
Where [18] appears, read: other: 100 mM MES-NaOH, pH 6.00, 25° C, Method B, 50% sucrose, η/ηo 6.85, pH 6.0.
Where [19] appears, read: other: 100 mM MES-NaOH, pH 6.00, 25° C, Method B, η/ηo 1.00, pH 6.0.
The mark [20] stands for this setting: other: pH 5.3, 25° C (Example 1), approximate, pH 5.3.
Where [21] appears, read: other: 100 mM sodium phosphate, pH 7.0, 25° C, Method B, second step (4NPX to 4NP+D-xylose), pH 7.0.
[22] abbreviates: 4NP inhibition experiment, HPLC.

Several values for one entry are separate records, joined by “and”; a condition that tells them apart may be missing. Identical values can stand only once. Like-named read-outs stand apart in the source and are kept apart here.

B1: Selenomonas ruminantium GA192 β-D-xylosidase (SXA), wild type, SEQ ID NO: 2 (Pseudoselenomonas ruminantium) (protein)
chain: MNIQNPVLKGFNPDPSIVRAGDDYYIATSTFEWFPGVQIHHSKDLVHWHLVAHPLSTTEFLDMKGNPDSGGIWAPDLSYADGKFWLIYTDVKVVDGMWKDCHNYLTTAEDIKGPWSKPILLNGAGFDASLFHDPSGKKYLVNMYWDQRVYHHNFYGIALQEYSVAEEKLIGKPEIIYKGTDIAYTEGPHLYYINDMYYLMTAEGGTTYQHSETIARSKTIHGPYEIQPDYPLLSAWKEVHNPLQKCGHASLVETQNGQWYLAHLTGRPLPAPAGFPSREREQHAFCPLGRETAIQKIEWQDGWPVVVGGQQGSLEVEAPDLPQQEWAPTYEERDDFDKDTLNINFQTLRIPFSEHLGSLTARPGFLRLYGRESLQSKFTQAHIARRWQSFNFDAGTSVEFSPNSFQQMAGLTCYYNTENWSSIHVTWNEEKGRIIDLVTADNGTFSMPLAGAEIPIPDEVKTVHFKVSVRGRIYQYAYSFDGETFHTLPIELPSWKLSDDYVRGGGFFTGAFVGINAIDITGTALPADFDYFTYKELD
One may read the Km as the concentration of substrate that gives half-maximal velocity. Usually kcat stands for the number of substrate molecules converted per active site and unit of time at saturation. On to B1, for which the Km came to 900 ± 13 µM in data set [1] (setting [16]); 880 ± 130 µM in data set [1] (setting [17]); 380 ± 5 µM in [2]; 754 ± 101 µM in [3] (setting [18]); 745 ± 36 µM in [3] (setting [19]); 810 ± 50 µM in data set [3] (other: 100 mM succinate-NaOH, pH 5.3, 25° C, Method A, no sucrose, pH 5.3). Besides, the Km is 690 ± 430 µM in [4]; 2750 ± 230 µM in data set [5]; 4000 ± 300 µM in data set [5] (pH 5.3); 2860 ± 380 µM in data set [6]; 3700 ± 600 µM in data set [6] (pH 5.3); 3120 ± 210 µM in [7]. In addition, the Km in [7] (pH 5.3) worked out at 2700 ± 500 µM; in data set [8] it was 1200 ± 100 µM; in data set [9] it was 2120 ± 100 µM; in data set [9] (pH 5.3), 3800 ± 600 µM; in [10] (setting [18]) it was 637 ± 81 µM; in data set [10] (setting [19]), 699 ± 35 µM. The Km in data set [10] (setting [21]) came out at 443 ± 8 µM; in data set [10] (other: pH 5.3, 25° C, Method A, 50% sucrose, η/ηo 6.12, pH 5.3), 690 ± 35 µM; in data set [11], 2060 ± 80 µM; in data set [11] (pH 5.3) it was 4200 ± 500 µM; in data set [12] (setting [22]) it was 758 ± 59 µM; in data set [12] (D-xylose inhibition experiment), 716 ± 32 µM. The kcat in [1] (setting [16]) worked out at 2.79 ± 0.01 s⁻¹; in [1] (setting [17]), 2.78 ± 0.01 s⁻¹; in [2], 12.2 ± 0.05 s⁻¹; in data set [3] (other: pH profile, I=0.3 M, Method B) it was 3.25 ± 0.05 s⁻¹; in data set [4], 50.5 ± 25.7 s⁻¹; in data set [7] (setting [20]), 100 s⁻¹. The kcat worked out at 170 s⁻¹ in [9] (setting [20]), 16.2 ± 0.09 s⁻¹ in [10] (setting [21]), 26.7 ± 1.1 s⁻¹ in data set [12] (setting [22]) and 32.1 ± 0.5 s⁻¹ in [12] (D-xylose inhibition experiment).

B2: SXA: β-D-xylosidase (E.C. 3.2.1.37) of Selenomonas ruminantium GA192, glycoside hydrolase family 43, GenBank AAB97967, SEQ. ID No. 2 (protein)
chain: B1 chain
modifications: selenomonas ruminantium
For B2, in [13], the isoelectric point result was “approximately 4.4”. Also, the “pH below which SXA is unstable” value in the data set with SXA [14] is on record as “below 4.1”. The “kobs, first-order inactivation rate constant of SXA” value with SXA [14] (pH 4.0, 25° C., absence of monosaccharide (0 mM)) is 0.0784 ± 0.0023 min⁻¹ and 0.0518 ± 0.0037 min⁻¹; with SXA [15] (pH 5.3, 55° C., absence of monosaccharide (0 mM)), 0.0252 ± 0.0020 min⁻¹ and 0.0256 ± 0.0015 min⁻¹. In addition, the “temperature up to which the enzyme is stable” value in the data set with SXA [15] is “up to 55 °C”.
